For this data set, the system named is apRAD51C-CTD-1 WT (Alvinella pompejana). Briefly: fluorescence polarization. The conditions noted are these: FP: 20 mM HEPES pH 8, 80 mM NaCl, 2.5 mM ATP, 2.5 mM MgCl2, 1 mM DTT, 0.1 mg/mL BSA, 10 nM DNA, 37 C 20 min, EMSA: 20 mM Tris pH 8.0, 150 mM KCl, 4 C 15 min. (In fluorescence polarisation assays a small probe gives low polarisation when free and higher when bound to something large.)

Consider one sequence from article PMC10366140.

As usually defined, the Kd is the equilibrium constant for the complex coming apart. A higher Kd goes with a looser complex. As for TTTTTTTTTTTTTTTTTTTT [poly-20dT], the Kd amounted to 1250 nM.
